Measured values reported in patent US20240076389A1.

Columns and labels:
[1] = target: huMER-ECD displayed on yeast (human) (UniProt Q12866); test: yeast surface display ELISA, non-denatured yeast, goat anti-human F(ab')2-HRP
[2] = target: huAXL-ECD displayed on yeast (human) (UniProt P30530); test: as above
[3] = target: cyAXL-ECD displayed on yeast; test: as above
[4] = target: huTyro3-ECD displayed on yeast (human) (UniProt Q06418); test: as above
[5] = target: recombinant human AXL extracellular domain, C-terminally His8-tagged (rhAXL-ECD) (human) (UniProt P30530); test: ELISA on coated AXL ECD (100 ng/well)
Sequence of recombinant human AXL extracellular domain, C-terminally His8-tagged (rhAXL-ECD) (human) (P30530 other isoform, or with tags, fused parts or gaps limits assumed): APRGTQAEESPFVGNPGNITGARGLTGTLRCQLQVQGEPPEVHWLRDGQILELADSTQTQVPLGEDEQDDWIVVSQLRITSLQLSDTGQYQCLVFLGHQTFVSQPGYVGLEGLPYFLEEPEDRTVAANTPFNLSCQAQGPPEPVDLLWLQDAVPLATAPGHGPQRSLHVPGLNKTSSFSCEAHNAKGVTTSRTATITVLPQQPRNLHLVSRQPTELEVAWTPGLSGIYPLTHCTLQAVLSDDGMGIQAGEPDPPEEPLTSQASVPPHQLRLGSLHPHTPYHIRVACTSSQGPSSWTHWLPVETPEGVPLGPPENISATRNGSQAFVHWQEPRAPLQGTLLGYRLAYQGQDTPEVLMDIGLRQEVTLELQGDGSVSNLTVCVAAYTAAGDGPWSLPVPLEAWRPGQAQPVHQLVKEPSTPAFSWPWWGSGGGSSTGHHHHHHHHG

[6] = target: mouse AXL extracellular domain (Sino cat. 51026-M08H) (mouse) (UniProt Q00993); test: ELISA on coated AXL ECD (100 ng/well)
Sequence of mouse AXL extracellular domain (Sino cat. 51026-M08H) (mouse) (Q00993 19-445, stated change not applied): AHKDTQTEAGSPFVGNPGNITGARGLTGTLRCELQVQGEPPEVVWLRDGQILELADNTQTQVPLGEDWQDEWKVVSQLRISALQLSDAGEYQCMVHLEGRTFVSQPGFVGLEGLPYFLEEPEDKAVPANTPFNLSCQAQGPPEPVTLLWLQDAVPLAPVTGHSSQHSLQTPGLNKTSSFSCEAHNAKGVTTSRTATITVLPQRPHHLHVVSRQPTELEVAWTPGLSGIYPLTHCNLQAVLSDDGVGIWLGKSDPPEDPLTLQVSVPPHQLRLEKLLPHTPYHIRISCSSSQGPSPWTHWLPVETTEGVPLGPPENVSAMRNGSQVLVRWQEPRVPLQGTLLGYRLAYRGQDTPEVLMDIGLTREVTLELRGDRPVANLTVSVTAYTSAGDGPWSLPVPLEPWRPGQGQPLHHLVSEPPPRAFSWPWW

Sequence of huAXL-ECD displayed on yeast (human) (P30530 26-449, form in doubt): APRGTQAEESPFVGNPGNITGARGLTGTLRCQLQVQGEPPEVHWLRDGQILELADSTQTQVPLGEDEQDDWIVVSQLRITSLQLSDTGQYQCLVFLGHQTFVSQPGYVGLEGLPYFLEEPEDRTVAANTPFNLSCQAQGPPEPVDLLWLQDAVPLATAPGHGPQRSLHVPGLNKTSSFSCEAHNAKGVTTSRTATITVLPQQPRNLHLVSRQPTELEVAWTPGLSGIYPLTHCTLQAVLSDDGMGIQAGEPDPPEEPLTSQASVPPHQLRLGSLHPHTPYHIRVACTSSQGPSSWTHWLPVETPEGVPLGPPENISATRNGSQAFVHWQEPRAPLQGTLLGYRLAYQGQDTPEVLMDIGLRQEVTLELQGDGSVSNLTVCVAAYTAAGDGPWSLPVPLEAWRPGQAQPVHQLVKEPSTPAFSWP
Sequence of huMER-ECD displayed on yeast (human) (Q12866 21-505): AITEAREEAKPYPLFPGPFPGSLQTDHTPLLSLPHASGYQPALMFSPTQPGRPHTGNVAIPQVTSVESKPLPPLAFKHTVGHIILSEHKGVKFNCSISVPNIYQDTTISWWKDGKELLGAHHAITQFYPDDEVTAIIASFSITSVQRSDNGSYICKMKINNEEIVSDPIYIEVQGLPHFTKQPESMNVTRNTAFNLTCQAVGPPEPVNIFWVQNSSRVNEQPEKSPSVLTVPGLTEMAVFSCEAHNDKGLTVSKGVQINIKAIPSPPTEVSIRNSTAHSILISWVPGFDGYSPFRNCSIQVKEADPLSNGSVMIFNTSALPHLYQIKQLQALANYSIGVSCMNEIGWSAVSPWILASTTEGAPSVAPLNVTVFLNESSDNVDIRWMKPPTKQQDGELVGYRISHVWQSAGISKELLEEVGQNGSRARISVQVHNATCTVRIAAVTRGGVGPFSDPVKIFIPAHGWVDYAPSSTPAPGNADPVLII
Sequence of huTyro3-ECD displayed on yeast (human) (Q06418 41-429): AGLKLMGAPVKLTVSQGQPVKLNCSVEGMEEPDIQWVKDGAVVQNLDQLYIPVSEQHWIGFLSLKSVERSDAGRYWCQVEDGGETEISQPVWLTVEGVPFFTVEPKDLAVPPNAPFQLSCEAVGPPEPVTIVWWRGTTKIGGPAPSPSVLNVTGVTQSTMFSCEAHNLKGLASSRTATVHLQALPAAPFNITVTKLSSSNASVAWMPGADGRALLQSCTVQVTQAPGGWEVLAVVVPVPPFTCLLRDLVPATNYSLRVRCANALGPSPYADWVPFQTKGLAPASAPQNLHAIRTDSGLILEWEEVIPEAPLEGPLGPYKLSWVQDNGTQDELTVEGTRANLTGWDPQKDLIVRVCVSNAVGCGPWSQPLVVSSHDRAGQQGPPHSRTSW

yeast ELISA signal normalized to myc expression level [1] | yeast ELISA signal normalized to myc expression level [2] | yeast ELISA signal normalized to myc expression level [3] | yeast ELISA signal normalized to myc expression level [4] | EC50 [5] | EC50 [6] | Substance
-0.001 | 0.087 | -0.004 | 0.059 | – | – | hFC-anti-RSV (antibody)
– | – | – | – | 0.061 µM | 0.001 µM | MAB8541 (R&D Systems), commercial anti-mouse AXL mAb, clone 175128, rat IgG2A (antibody)
